This note sets out measurements from the supplement of paper PMC11246515.

This series can be described thus: total protein half-life in vivo (active degradation + dilution); higher = more stable protein.
Setting [1] is: E. coli NCM3722 delta-clpP delta-lon delta-hslV, growth: N-lim chemostat, doubling time 6 h.
Setting [2] is: E. coli NCM3722 delta-clpP, growth: N-lim chemostat, doubling time 6 h.
Where [3] appears, read: E. coli NCM3722 delta-hslV, growth: N-lim chemostat, doubling time 6 h.
[4] abbreviates: E. coli NCM3722 delta-lon, growth: N-lim chemostat, doubling time 6 h.
Setting [5] is: E. coli NCM3722 delta-smpB, growth: N-lim chemostat, doubling time 6 h.
The mark [6] stands for this setting: wild type E. coli NCM3722, growth: C-lim chemostat, doubling time 3 h.
Where [7] appears, read: wild type E. coli NCM3722, growth: C-lim chemostat, doubling time 6 h.
Setting [8] is: wild type E. coli NCM3722, growth: C-lim chemostat, doubling time 12 h.
The mark [9] stands for this setting: wild type E. coli NCM3722, growth: N-lim chemostat, doubling time 6 h.
[10] abbreviates: wild type E. coli NCM3722, growth: N-lim chemostat, doubling time 12 h.
Setting [11] is: wild type E. coli NCM3722, growth: P-lim chemostat, doubling time 6 h.
The mark [12] stands for this setting: wild type E. coli NCM3722, growth: P-lim chemostat, doubling time 12 h.

± gives the standard deviation of the averaged measurements.

Regarding “MAYFLDFDERALKEWRKLGSTVREQLKKKLVEVLESPRIEANKLRGMPDCYKIKLRSSGYRLVYQVIDEKVVVFVISVGKRERSEVYSEAVKRIL [P0C077]”, the “total protein half-life in vivo” value by setting is: under setting [1], 4.02 ± 0.45 h; under setting [2], 3.59 ± 0.8 h; under setting [3], 2.54 ± 0.14 h; under setting [4], 3.36 ± 0.24 h; under setting [5], 2.83 ± 0.12 h; under setting [6], 3 ± 0.35 h. The “total protein half-life in vivo” value under setting [7] is 4.25 ± 0.73 h; the “total protein half-life in vivo” value under setting [8] is 6.2 ± 0.85 h; the “total protein half-life in vivo” value under setting [9] came out at 2.58 ± 0.06 h; the “total protein half-life in vivo” value under setting [10] stood at 3.73 ± 0.099 h; the “total protein half-life in vivo” value under setting [11] turned out to be 3.75 ± 0.74 h; the “total protein half-life in vivo” value under setting [12] is 11.3 ± 0.5 h.
Regarding “MGNSDRKPGLIKRLWKWWRTPSRLALGTLLLIGFVGGIVFWGGFNTGMEKANTEEFCISCHEMRNTVYQEYMDSVHYNNRSGVRATCPDCHVPHEFVPKMIRKLKASKELYGKIFGVIDTPQKFEAHRLTMAQNEWRRMKDNNSQECRNCHNFEYMDTTAQKSVAAKMHDQAVKDGQTCIDCHKGIAHKLPDMREVEPGF [P0ABL5]”, the “total protein half-life in vivo” value by setting is: under setting [2], 4.79 h; under setting [5], 5.22 ± 1.8 h; under setting [7], 3.97 h; under setting [8], 9.62 h; under setting [12], 8.81 h.
For the sequence “MFPEYRDLISRLKNENPRFMSLFDKHNKLDHEIARKEGSDGRGYNAEVVRMKKQKLQLKDEMLKILQQESVKEV [P0ACW6]”, the “total protein half-life in vivo” value under setting [6] came to 1.33 h, the “total protein half-life in vivo” value under setting [7] came to 1.87 ± 0.1 h and the “total protein half-life in vivo” value under setting [8] is 1.75 h.
“MTVKQTVEITNKLGMHARPAMKLFELMQGFDAEVLLRNDEGTEAEANSVIALLMLDSAKGRQIEVEATGPQEEEALAAVIALFNSGFDED [P0A9N0]”: the “total protein half-life in vivo” value reads like this: under setting [1], 4.886 ± 0.034 h; under setting [2], 2.96 h; under setting [3], 2.41 h; under setting [4], 2.28 h; under setting [5], 2.09 h; under setting [6], 2.15 ± 0.18 h. The “total protein half-life in vivo” value reads like this: under setting [7], 3.27 ± 0.19 h; under setting [8], 4.27 h; under setting [9], 2.7 h; under setting [10], 3.97 ± 0.24 h; under setting [11], 2.35 h; under setting [12], 4.46 ± 0.45 h.
Take “MNQPLLSVNNLTHLYAPGKGFSDVSFDLWPGEVLGIVGESGSGKTTLLKSISARLTPQQGEIHYENRSLYAMSEADRRRLLRTEWGVVHQHPLDGLRRQVSAGGNIGERLMATGARHYGDIRATAQKWLEEVEIPANRIDDLPTTFSGGMQQRLQIARNLVTHPKLVFMDEPTGGLDVSVQARLLDLLRGLVVELNLAVVIVTHDLGVARLLADRLLVMKQGQVVESGLTDRVLDDPHHPYTQLLVSSVLQN”: the “total protein half-life in vivo” value under setting [7] is 4.8 h, the “total protein half-life in vivo” value under setting [11] came to 0.314 h and the “total protein half-life in vivo” value under setting [12] came to 1.09 ± 0.26 h.
Take “MKAFNKLFSLVVASVLVFSLAGCGDKEESKKFSANLNGTEIAITYVYKGDKVLKQSSETKIQFASIGATTKEDAAKTLEPLSAKYKNIAGVEEKLTYTDTYAQENVTIDMEKVDFKALQGISGINVSAEDAKKGITMAQMELVMKAAGFKEVK”: the “total protein half-life in vivo” value under setting [1] is 5.1 h; the “total protein half-life in vivo” value under setting [2] was found to be 5.39 h; the “total protein half-life in vivo” value under setting [3] is 5.31 h; the “total protein half-life in vivo” value under setting [4] stood at 5.76 ± 0.26 h; the “total protein half-life in vivo” value under setting [5] worked out at 4.61 ± 0.12 h; the “total protein half-life in vivo” value under setting [6] stood at 2.68 h. Further, the “total protein half-life in vivo” value runs as follows: under setting [7], 4.07 ± 0.38 h; under setting [8], 7.55 h; under setting [9], 5.76 ± 0.11 h; under setting [10], 9.71 ± 1.6 h; under setting [11], 5.3 h.
For the sequence “MYQPVALFIGLRYMRGRAADRFGRFVSWLSTIGITLGVMALVTVLSVMNGFERELQNNILGLMPQAILSSEHGSLNPQQLPETAVKLDGVNRVAPITTGDVVLQSARSVAVGVMLGIDPAQKDPLTPYLVNVKQTDLEPGKYNVILGEQLASQLGVNRGDQIRVMVPSASQFTPMGRIPSQRLFNVIGTFAANSEVDGYEMLVNIEDASRLMRYPAGNITGWRLWLDEPLKVDSLSQQKLPEGSKWQDWRDRKGELFQAVRMEKNMMGLLLSLIVAVAAFNIITSLGLMVMEKQGEVAILQTQGLTPRQIMMVFMVQGASAGIIGAILGAALGALLASQLNNLMPIIGVLLDGAALPVAIEPLQVIVIALVAMAIALLSTLYPSWRAAATQPAEALRYE [P0ADC3]”, the “total protein half-life in vivo” value reads like this: under setting [1], 6.47 ± 0.46 h; under setting [2], 6.838 ± 0.034 h; under setting [3], 6.01 ± 0.34 h; under setting [4], 6.53 ± 1.3 h; under setting [5], 6.43 ± 0.65 h; under setting [6], 3.11 ± 0.068 h. The “total protein half-life in vivo” value under setting [7] stood at 5.78 ± 1.3 h; the “total protein half-life in vivo” value under setting [8] amounted to 12.3 ± 0.59 h; the “total protein half-life in vivo” value under setting [9] was found to be 5.8 ± 0.06 h; the “total protein half-life in vivo” value under setting [10] amounted to 13.1 ± 1.6 h; the “total protein half-life in vivo” value under setting [11] was 6.178 ± 0.04 h; the “total protein half-life in vivo” value under setting [12] is 12.3 ± 1.1 h.
